Reference: patent US20250320461A1, “GENETICALLY MODIFIED HUMAN STEM CELL EXPRESSING A MUTANT HUMAN CYTOCHROME P450 2B6 PROTEIN AND ITS USE THEREOF IN THE TREATMENT OF CANCER” (ASSISTANCE PUBLIQUE-HOPITAUX DE PARIS, priority 2019, published 2025)

Experiment: affinity of cytochrome P450 2B6 protein for CPA
Type: biochemical, human
Text: In one particularly advantageous embodiment, said variants and fragments have an affinity for CPA the same as, substantially the same as, or greater than, that of the mutant human cytochrome P450 2B6 protein (CYP2B6*) of SEQ ID No 1.

B1: CYP2B6*: mutant human cytochrome P450 2B6 protein of SEQ ID No. 1 (substitutions I114V, L199M, V477W) (protein, listed as Homo sapiens)
chain: MELSVLLFLALLTGLLLLLVQRHPNTHDRLPPGPRPLPLLGNLLQMDRRGLLKSFLRFREKYGDVFTVHLGPRPVVMLCGVEAIREALVDKAEAFSGRGKIAMVDPFFRGYGVVFANGNRWKVLRRFSVTTMRDFGMGKRSVEERIQEEAQCLIEELRKSKGALMDPTFLFQSITANIICSIVFGKRFHYQDQEFLKMMNLFYQTFSLISSVFGQLFELFSGFLKYFPGAHRQVYKNLQEINAYIGHSVEKHRETLDPSAPKDLIDTYLLHMEKEKSNAHSEFSHQNLNLNTLSLFFAGTETTSTTLRYGFLLMLKYPHVAERVYREIEQVIGPHRPPELHDRAKMPYTEAVIYEIQRFSDLLPMGVPHIVTQHTSFRGYIIPKDTEVFLILSTALHDPHYFEKPDAFNPDHFLDANGALKKTEAFIPFSLGKRICLGEGIARAELFLFFTTILQNFSMASPVAPEDIDLTPQECGWGKIPPTYQIRFLPR
**Q.** For B1, which Vmax (compared with CYP2B6 WT) is on record?
**A.** same

**Q.** And the “affinity for CPA relative to the wild-type protein (CYP2B6 WT)” value (vs CYP2B6 WT)?
**A.** more than 8 times
